T1: human IL3Rα (CD123), sample in solution for biolayer interferometry (human, UniProt P26951 19-305, limits assumed)
T1 construct: Soluble analyte in the Octet assay; also called hIL3-Rα; hIL3Rα
T1 sequence (looked up): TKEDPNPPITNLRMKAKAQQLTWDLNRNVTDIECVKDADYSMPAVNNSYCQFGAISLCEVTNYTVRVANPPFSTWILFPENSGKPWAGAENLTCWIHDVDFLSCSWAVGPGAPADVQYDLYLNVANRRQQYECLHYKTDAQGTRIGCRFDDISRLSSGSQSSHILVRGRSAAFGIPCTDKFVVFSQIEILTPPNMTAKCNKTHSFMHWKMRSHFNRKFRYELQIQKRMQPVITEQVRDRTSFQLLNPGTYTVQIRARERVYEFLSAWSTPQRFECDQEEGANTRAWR


target: T2, human CD123 (IL3Rα) on cells (human, UniProt P26951 19-378); assay: flow cytometry on Mv411 cells, geometric mean
T2 construct: whole, on cells; also called human IL3Rα expressed on 293 cells; AD293hIL3Rα

Row | binding result | Binder
1 | binds | HT37-GL (antibody, V domains shown, member of m17) VH: EVQLLESGGGLVQPGGSLRLSCAASGFTFSIYAMTWVRQAPGKGLEWVSAISAGGDNTYNADSVKGRFTISRDNSKNTLYLQMNSLRAEDTAVYYCAKDRGYYYGMDVWGQGTTVTVSS VL: not shown

target: T2, human CD123 (IL3Rα) on cells; assay: flow cytometry on OCI-AML5 cells, geometric mean

Row | binding result | Binder
2 | binds | HT38-GL (antibody, V domains shown, member of m17) VH: EVQLLESGGGLVQPGGSLRLSCAASGFTFSSYAMSWVRQAPGKGLEWVSAISGGGDSTYYTDSVKGRFTISRDNSKNTLYLQMNSLRAEDTAVYYCAKDRGFYYGMDVWGQGTTVTVSS VL: not shown
3 | binds | HT37-GL-L (antibody, V domains shown, member of m17) VH: EVQLLESGGGLVQPGGSLRLSCAASGFTFSIYAMTWVRQAPGKGLEWVSAISAGGDNTYNADSVKGRFTISRDNSKITLYLQMNSLRAEDTAVYYCAKDRGYYYGMDVWGQGTTVTVSS VL: not shown
4 | binds | HT38-GL-Q (antibody, V domains shown, member of m17) VH: EVQLLESGGGLVQPGGSLRLSCAASGFTFSSYAMSWVRQAPGKGLEWVSAISGGGDSTYYTDSVKGRFTISRDNSKNTLYLQMNSLRAEDTAVYYCAKDRGFYYGMDVWGQGTTVTVSS VL: not shown

target: T2, human CD123 (IL3Rα) on cells; assay: flow cytometry on THP-1 CD123(+dox) cells, Geo MFI
Procedure: (§1) THP-1 cells were transfected with an IL3Rα expression construct under the control of a doxycycline inducible promoter. THP-1 cells were maintained in DMEM containing 10% heat-inactivated fetal bovine serum (FBS) and were cultured in a humidified atmosphere of 5% CO₂ and at a temperature of 37° C. […] (Dox) inducible cells were stimulated with 1 μg/ml dox overnight before use. […] On the day of plating, cells were spun down at 1500 rpm for 3 minutes, counted, and resuspended to a final concentration of 1×10⁶ cells/ml. Two hundred μl of cells were plated in wells of 96 well microtiter plates. The plates were spun down at 1500 rpm for 3 minutes and flicked to remove media. One hundred μl of FACS buffer (PBS+2% FBS) was added to each well. […] The antibody concentration started at 12 μg/ml followed by six 1:3 dilutions (no antibody control was also run). The plates were incubated at 4° C. for 30 minutes. Following incubation, the plates were washed 3 times by spinning down at 1500 rpm for 3 minutes, flicked and 100 μl of FACs buffer was added. Alexa 647 secondary antibody (goat anti-human IgG (H+L)) was added at 1:1000 dilution in 100 μl followed by 30 minute 4° C. incubation. The plates were washed as above. […] Cells were analyzed on a BD Bioscience LSRII by collecting 10,000 cells. Flow data was analyzed in FlowJo software.

Row | EC50 (read off the curve) | Binder
5 | ~0.3 µg/mL | HT12-GL-SG3932 (antibody, human IgG1, kappa, V domains shown, SG3932 drug-linker on Cysteine 214 (EU numbering); SG3932 drug-linker (maleimide, succinimidyl thioether) on reduced cysteines; Cysteine 220, Cysteine 226 and Cysteine 229 (EU numbering) named as conjugation sites; DAR 8, also called HT12-GL ADC; CD123 ADC) VH: EVQLLESGGGLVQPGGSLRLSCAASGFTFNIYAMTWVRQAPGKGLEWVSGISAGGDSTYYADSVKGRFTISRDNSKNTLYLQMNSLRAEDTAVYYCAKDRGYYYGMDVWGQGTTVTVSS VL: not shown

target: T2, human CD123 (IL3Rα) on cells; assay: flow cytometry on THP-1 CD123 (no dox) cells, Geo MFI
Procedure: as §1

Row | EC50 (read off the curve) | Binder
6 | ~0.1 µg/mL | HT12-GL-SG3932 (antibody, human IgG1, kappa, V domains shown, SG3932 drug-linker on Cysteine 214 (EU numbering); SG3932 drug-linker (maleimide, succinimidyl thioether) on reduced cysteines; Cysteine 220, Cysteine 226 and Cysteine 229 (EU numbering) named as conjugation sites; DAR 8, also called HT12-GL ADC; CD123 ADC) VH: EVQLLESGGGLVQPGGSLRLSCAASGFTFNIYAMTWVRQAPGKGLEWVSGISAGGDSTYYADSVKGRFTISRDNSKNTLYLQMNSLRAEDTAVYYCAKDRGYYYGMDVWGQGTTVTVSS VL: not shown

target: T2, human CD123 (IL3Rα) on cells; assay: flow cytometry on Ad293 cells expressing human IL3Ra, geometric mean

Row | binding result | Binder
7 | binds | HT14-GL (antibody, V domains shown, member of m17) VH: EVQLLESGGGLVQPGGSLRLSCAASGFTFNIYAMTWVRQAPGKGLEWVSGISGGGDSTYYADSVKGRFTMSRDNSKNTLYLQMNSLRAEDTAVYYCAKDRGYYYGMDVWGQGTTVTVSS VL: DIVMTQSPLSLPVTPGEPASISCKSRQSLLRSNGYNYLDWYLQKPGQSPQLLIYLGSNRASGVPDRFSGSGSGTDFTLKISRVEAEDVGVYYCMQALQTPYTFGQGTKLEIK
8 | binds | HT35-GL (antibody, V domains shown, member of m17) VH: EVQLLESGGGLVQPGGSLRLSCAASGFTFSHYAMTWVRQAPGKGLEWISAISGGGDSTYYADSVKGRFTISRDNSKNTLYLQMNSLRAEDTAVYYCAKDRGYYYGMDVWGQGTTVTVSS VL: not shown
9 | binds | HT30-GL (antibody, V domains shown, member of m17) VH: EVQLLESGGGLVQPGGSLRLSCAASGFTFSIYAMSWVRQAPGKGLEWVSAITAGGDTTYYAVSVKGRFTISRDNSKNTLYLQMNSLRAEDTAVYYCAKDRGYYYGMDVWGQGTTVTVSS VL: not shown
10 | binds | HT34-GL-L (antibody, V domains shown, member of m17) VH: EVQLLESGGGLVQPGGSLRLSCAASGFTFSHYAMTWVRQAPGKGLEWVSAISGGGDTTYYADSVKGRFTISRDNSKTTLYLQMNSLRAEDTAVYYCAKDRGYYYGMDVWGQGTTVTVSS VL: not shown
11 | binds | HT16-GL (antibody, V domains shown, member of m17) VH: EVQLLESGGGLVQPGGSLRLSCAASGFTFSNYAMTWVRQAPGKGLEWVSAISGGGDTTYYADSVKGRFTISRDNSKNTLYLQMNSLRAEDTAVYYCAKDRGYYYGMDVWGQGTTVTVSS VL: not shown
12 | binds | HT4-GL (antibody, V domains shown, member of m17) VH: EVQLLESGGGLVQPGGSLRLSCAASGFTFSIYAMSWVRQAPGKGLEWVSAISGGGDSTYNADSVKGRFTISRDNSKNTLYLQMNSLRAEDTAVYYCAKDRGYYYGMVVWGQGTTVTVSS VL: not shown
13 | binds | HT36-GL (antibody, V domains shown, member of m17) VH: EVQLLESGGGLVQPGGSLRLSCAASGFTFSIYAMSWVRQAPGKGLEWVSAISGGGDTTYYADSVKGRFTSSRDNSKNTLYLQMNSLRAEDTAVYFCAKDRGFYYGMDVWGQGTTVTVSS VL: not shown

The next lines start with the binder.

Row | Binder | binding result
14 | HT31-GL (antibody, V domains shown, member of m17) VH: EVQLLESGGGLVQPGGSLRLSCAASGFTFSIYAMSWVRQAPGKGLEWVSAISGGGDSTYYADSVKGRFTISRDNSKNTLYLQMNSLRAEDTAVYYCAKDRGFYYGMDVWGQGTTVTVSS VL: not shown | binds
15 | HT10-GL (antibody, V domains shown, member of m17) VH: EVQLLESGGGLVQPGGSLRLSCAASGFTFSHYAMTWVRQAPGKGLEWISAISGGGDSTYYADSVKGRFTISRDNSKNTLYLQMNSLRAEDTAVYYCAKDRGYYYGMDDWGQGTTVTVSS VL: not shown | binds
16 | HT7-GL (antibody, V domains shown, member of m17) VH: EVQLLESGGGLVQPGGSLRLSCAASGFTFSHYAMSWVRQAPGKGLEWVSAISGGGDRTFYADSVKGRFTISRDNSKNTLYLQMNSLRAEDTAVYYCAKDRGFYYGMDVWGQGTTVTVSS VL: not shown | binds
17 | HT6-GL (antibody, V domains shown, member of m17) VH: EVQLLESGGGLVQPGGSLRLSCAASGFTFNSYAMSWVRQAPGKGLEWVSAVSGGGDTTYYAESVKGRFTISRDNSKNTLYLQMNSLRAEDTAVYYCAKDRGYYYGMAVWGQGTTVTVSS VL: DIVMTQSPLSLPVTPGEPASISCRSSQSLLRSNGYHYLDWYLQKPGQSPQLLIYLGSNRAPGVPDRFSGSGSGTDFTLKISRVEAEDVGVYYCMQALQTPYTFGQGTKLEIK | binds
18 | HT29-GL (antibody, V domains shown, member of m17) VH: EVQLLESGGGLVQPGGSLRLSCAASGFAFSHYAMSWVRQAPGKGLEWVSAISGGGDSTYYADSVKGRFTISRDNSKNTLYLQMNSLRAEDTAVYYCAKDRGYYYGMDVWGQGTTVTVSS VL: not shown | binds
19 | HT33-GL (antibody, V domains shown, member of m17) VH: EVQLLESGGGLVQPGGSLRLSCAASGFTFGHYAMSWVRQAPGKGLEWVSAISGGGDYTYYADSVKGRLTISRDNSKNTLYLQMNSLRAEDTAVYYCAKDRGYYYGMDVWGQGTTVTVSS VL: not shown | binds
20 | HT8-GL (antibody, V domains shown, member of m17) VH: EVQLLESGGGLVQPGGSLRLSCAASGFTFSIYAMSWVRQAPGKGLEWVSAISGGGDTTYYADSMKGRFTISRDNSKNTLYLQMNSLRAEDTAVYYCAKDRGYYYGMDVWGQGTTVTVSS VL: not shown | binds
21 | HT32-GL (antibody, V domains shown, member of m17) VH: EVQLLESGGGLVQPGGSLRLSCAASGFTFSSYAMSWVRQAPGKGLEWVSAISGGGDTTYYADSVKGRFTISRDNSKNTLYLQMNSLRAEDTAVYYCAKDRGFYYGMDVWGQGTTVTVSS VL: not shown | binds

target: T1, human IL3Rα (CD123), sample in solution …; assay: kinetic binding curves, antibody on the sensor, human CD123 in solution
Procedure: Biolayer interferometry binding experiments were performed using an Octet RED384 instrument, with all measurements made at 30° C. AHC biosensor probes were soaked in kinetics buffer (PBS pH 7.2+0.02% Tween-20, 0.1% BSA, 0.05% sodium azide) for 10 minutes, followed by baseline signal measurement in kinetics buffer for 60 seconds. […] For binding to hIL3-Rα, the antibody-loaded biosensor tips were dipped in binding buffer for 60 sec (baseline), followed by immersion in a solution containing dilutions of hIL3-Rα (10-0.16 μg/mL) for 300 sec (association), and subsequent immersion in kinetics buffer for 400 sec (dissociation). For binding to hIL5-Rα and GM-CSFRa, all steps were the same except the concentration of antigen was increased (50-1.56 μg/mL) and the dissociation step was decreased to 300 sec. The signal from a buffer only reference sample was subtracted, and all curves were fit with a 1:1 binding model to determine KD values.

Row | binding result | Binder
22 | binds | J13 antibody (antibody, V domains shown, also called Antibody J13) VH: EVQLVESGGGLVQPGGSLRLSCVVSGFTFSSYAMSWVRQAPGKGLEWVSAISGSGDSTYYADSVKGRFTFSRDNSKNTLYLQMNSLRAEDTAVYYCTKDRGFYYGMDVWGQGTMVTVSS VL: not shown
